In the assay the target is MHC class I (HLA-ABC) on Me275 and Me290 melanoma cells. Kind of assay: cell-based or functional assay.

Turning to “purified mouse anti-human HLA-ABC mAb (clone W6/32, DAKO) (antibody)”, the inhibition of specific lysis (4 hour 51Cr release assay) is more than 60% and the specific lysis with W6/32 mAb (4 hour 51Cr release assay, E:T ratio 15:1) came out at 4 % lysis.

For the origin of these results see patent US20060140983A1.
